Test results from the nanobody polyreactivity screen of Harvey et al. (2022).

Assay: yeast display, Sf9 membrane polyspecificity reagent, FACS + sequencing; frameworks hold sequencing errors
Summary of the method: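 A synthetic nanobody library was expressed on Saccharomyces cerevisiae BJ5465 by galactose induction for 36–48 hours. The library was stained for 1 hour at 4 °C with 10% biotinylated, detergent-solubilized Sf9 membrane reagent and enriched with streptavidin microbeads before FACS. Low and high (top ~1%) gates were set on anti-HA fluorescence for expression and streptavidin fluorescence for reagent binding, and each polyreactivity label reflects the gate of origin.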

QVQLEESGGGLVQAGGSLRLSCAASGIIFWEYAMGWYRQAPGKERELVAAINARGTRTYYADSVKGRFSISRDNAKNTVYLQMNSLKPEDTAVYYCAADRYGWTRYDSWGQGTQVTVSS
polyreactivity (PSR sort gate): high polyreactivity

QVQLEESGGGLVQAGGSLRLSCAASGIIIKYYAMGWYSQAPGKESELVAAISSSGGKTYYADSVKGRFTISRDNAKNTVYLQMKSLKPEDTGVDYCAAQRYVRYKYDYWGQGTQVTVSS
polyreactivity (PSR sort gate): high polyreactivity

QVQLEESGGGLVQAGGSLRLSCAASGITFGFYAMGWYRQAPGKERELVASITWRGGSTYYADSVKGRFTISRVNAKNTVYLHMNSLKPEDTAVYYCAAEQYVFRPRAQEITSYDYWGQGTQVTVSS
polyreactivity (PSR sort gate): high polyreactivity

QVQLEESGGGLVQAGGSLRLSCAASGITFISYAMGWYRQAPGKERELVAVISKSGGRTYYADSVKGRFTISRDNAKNTVYLQMNSLKPEDTAVYYCAATKRYASGMYYWGQGTQVTVSS
polyreactivity (PSR sort gate): high polyreactivity

QVQLEESGGGLVQAGGSLRLSCAASGITFVTYAMGWYRQAPGKERELVAAISRSGGRTYYADSVKGRFTISRDNAKNTVYLQMNSLKPDDTAVYYCAAERKNKYDYWVQGTQVTVSS
polyreactivity (PSR sort gate): high polyreactivity

QVQLEESGGGLVQAGGSLRLSCAASGLIFPVYAMGWYRQAPGKERELVASISWNGGSTYYADSVKGRFTISRDNAKNTVYLQMNSLKPEDTAVYYCNKYPVSLWYYSKDYTYDYWGQGTQVTVSS
polyreactivity (PSR sort gate): low polyreactivity

QVQLEESGGGLVQAGGSLRLSCAASGLISSPNAMGWYRQAPGKERELVAAITRRGGSTYYADSVKGRFTISRDNAMNTVYLQINSLKPEDTAVYYCAKATGRPGYDYWGQGTQVTVSS
polyreactivity (PSR sort gate): high polyreactivity

QVQLEESGGGLVQAGGSLRLSCAASGLTFDPYAMGWSRQAPGKERELVAVITSRTGSTYYADSVKGRFTISRDNAKNTVYLQMNSLKPEDTAVYYCAAEIYYYGMYGYDYWGQGTQVTVSS
polyreactivity (PSR sort gate): high polyreactivity

QVQLEESGGGLVQAGGSLRLSCAASGLTFRIYAMGWYRQAPGKERELVATISTRGGSTYYADSVKGRFTISRDNPKNTVYLQMNSLQPEDTAVYYCAASLGWFSGSLYNYWGQGTQVTVSS
polyreactivity (PSR sort gate): high polyreactivity

QVQLEESGGGLVQAGGSLRLSCAASGLTFVRYAMGWYRQAPGKERELVAAISSGGSTNYADSVKGRVTISRDNAKNTVYLQMNSLKPEDTAVYYCAARPPRTYWRYQSDYWGQGTQVTVSS
polyreactivity (PSR sort gate): high polyreactivity

QVQLEESGGGLVQAGGSLRLSCAASGRIFAYYAMGLYRQAPGKERELVAAITTNGGGTYYADSVKGRFTISRDNAKNTVYLQMNSLKPEDTAVYYCNAVKQRSSFYDYWGQGTQVTVSS
polyreactivity (PSR sort gate): low polyreactivity

QVQLEESGGGLVQAGGSLRLSCAASGRIFGAYAMGWYRQAPGKERELVAAITSRGGNTYYADSVKGRFTISRDNAKNTVYLQMNSLKPEDTAVYYCAARHDKRRQYYVGESAFDYWGQGTQVTVSS
polyreactivity (PSR sort gate): low polyreactivity

QVQLEESGGGLVQAGGSLRLSCAASGRIFGWYALGWTRQAAGKESELVAAISNDGSTNYADSVKGRFTSSRDNAKNTVYLQLNSVKPEDTAVSYCNARVYSSRARWGTYDYWGQGNQVTVSS
polyreactivity (PSR sort gate): high polyreactivity

QVQLEESGGGLVQAGGSLRLSCAASGRIFKGYAMGWYRQATGKETEVVAAISSRGGNTYYADSVKGRFTISRDNAKNTVYLQMNSLKPVDTAVYYCAAVYKWSRYGGYNYWGQGTQVTVSS
polyreactivity (PSR sort gate): low polyreactivity

QVQLEESGGGLVQAGGSLRLSCAASGRIFRSYAMGWYRQAPGKERELVAAISQRGGRTYYADSVKGRFTISRDNAKNTVYLQMNSLKPEDTAVYYCAKSNPKLGYYYLQGDLYDYWGQGTQVTVSS
polyreactivity (PSR sort gate): low polyreactivity

QVQLEESGGGLVQAGGSLRLSCAASGRIFRYYAMGWSRQAPGKERELVAGISRGTSTYYADSVKGRFTISRDNAKNTVYLQMNSLKPEDTAVYYCAKGSIQYFRPYTFYSWGQGTQVTVSS
polyreactivity (PSR sort gate): high polyreactivity

QVQLEESGGGLVQAGGSLRLSCAASGRIFSRYAMGGYRQAPGKERELVAAITQSGTSTYYADSVKGRFTISRDNAKNTVYLQMNSLKPEDTAVYYCNAYRQYRYDYWGQGTQVTVSS
polyreactivity (PSR sort gate): low polyreactivity
